This note sets out measurements from paper PMC7105897.

The target in assay [1] is N2 NA of the 1957 H2N2 pandemic isolate A/Japan/305/1957 (influenza A virus A/Japan/305/1957 (H2N2)). Description: crystal structure.
Assay [2] has as its target N9 NA from the H7N9 epidemic isolate A/Hunan/02650/2016 (influenza A virus A/Hunan/02650/2016 (H7N9)). As to the kind of experiment: crystal structure.
For assay [3], the target named is N2 NA of the seasonal influenza virus strain A/Hong Kong/4801/2014 (H3N2) (influenza A virus A/Hong Kong/4801/2014 (H3N2)).

The stoichiometry N is a count of units in the complex or per binding partner. Take “N2 NA of the 1957 H2N2 pandemic isolate A/Japan/305/1957 (enzyme)”: the stoichiometry N in assay [1] worked out at 4.

In assay [2], “N9 NA from the H7N9 epidemic isolate A/Hunan/02650/2016 (enzyme)” registered a stoichiometry N of 4.

The substance antigen-binding fragment (Fab) of 1G01 registered an IC50 of inhibition of NA activity of H3N2 A/Hong Kong/4801/2014 in ELLA (Fab) in assay [3] of 7.62 nM.
